Measurements taken from article doi:10.1101/511345 (bioRxiv, 2019).

Assays:
cryo-EM structure = target: the molecule itself; experiment: cryo-EM structure
crystal structure = target: the molecule itself; experiment: crystal structure

B1: Quasibacillus thermotolerans (Qs) IMEF encapsulin capsid protein, assembled T = 4 shell (natural protein)
chain: MNKSQLYPDSPLTDQDFNQLDQTVIEAARRQLVGRRFIELYGPLGRGMQSVFNDIFMESHEAKMDFQGSFDTEVESSRRVNYTIPMLYKDFVLYWRDLEQSKALDIPIDFSVAANAARDVAFLEDQMIFHGSKEFDIPGLMNVKGRLTHLIGNWYESGNAFQDIVEARNKLLEMNHNGPYALVLSPELYSLLHRVHKDTNVLEIEHVRELITAGVFQSPVLKGKSGVIVNTGRNNLDLAISEDFETAYLGEEGMNHPFRVYETVVLRIKRPAAICTLIDPEE
cryo-EM structure
  stoichiometry N: 240

B2: Qs IMEF cargo protein, purified alone and crystallised (natural protein)
chain: MKEELDAFHQIFTTTKEAIERFMAMLTPVIENAEDDHERLYYHHIYEEEEQRLSRLDVLIPLIEKFQDETDEGLFSPSNNAFNRLLQELNLEKFGLHNFIEHVDLALFSFTDEERQTLLKELRKDAYEGYQYVKEKLAEINARFDHDYADPHAHHDEHRDHLADMPSAGSSHEEVQPVAHKKKGFTVGSLIQ
Crystal structure
  stoichiometry N: 2
